Reference: publication doi:10.1101/2024.05.10.593530

Target: Vibrio cholerae DdmD (Vibrio cholerae)
Assay: SEC-MALS

## Vibrio cholerae DdmD (enzyme)
  stoichiometry N: 2
